Measured values published in paper PMC3767815, “A Novel α-L-Arabinofuranosidase of Family 43 Glycoside Hydrolase (Ct43Araf) from Clostridium thermocellum” (PLoS ONE, 2013).

Assays:
purified protein [1] = substrate: O=[N+]([O-])c1ccc(O[C@@H]2OC[C@H](O)[C@H](O)[C@H]2O)cc1; assay: purified protein; format: biochemical, Acetivibrio thermocellus; conditions: 50°C, 20 mM sodium phosphate pH 5.7 (table note; methods print 50 mM sodium phosphate pH 6.0), substrate 20–500 µM
purified protein [2] = substrate: O=[N+]([O-])c1ccc(O[C@@H]2O[C@@H](CO)[C@H](O)[C@H]2O)cc1; assay: purified protein; format: biochemical, Acetivibrio thermocellus; conditions: 50°C, 20 mM sodium phosphate pH 5.7 (table note; methods print 50 mM sodium phosphate pH 6.0), substrate 20–500 µM

Row | Protein | Km (purified protein [1]) [mg/mL] | kcat (purified protein [1]) [s⁻¹] | Km (purified protein [2]) [mg/mL] | kcat (purified protein [2]) [s⁻¹]
1 | Ct43Araf (Acetivibrio thermocellus ATCC 27405) (protein, CtGH43-CtCBM6A-CtCBM6B; His6-tagged, pET-21a(+), E. coli BL21(DE3); 63 kDa; gene range printed 1545911 to 1547651; modules 903, 405 and 402 bp; forward primer starts at AADYP) AADYPIFSQRFTADPAAVVYNGRLYIYCSHDSDATPGQSTYNIPDITCISTDDLKNWTDHGEVFNAKRDSRWASVSWAPSIVYRNNKFYLYYGNGGNGIGVAVSDSPTGPFKDPLPGPLVSWNTPGVQPAQNMWLFDPGVFVDDDGQAYMYFGGNGQNNIRVIKLGNDMISTVGSAMTMSAPRFFEAAYMHKYNGKYYFSYASDFSQGASKIEYMMSDKPTTGFQYKGVILPQPPDNYSNNNHHAIVEYKGNWYVVYHNRTVAKQRGLDPVYQRNVCIDQMFYNADGTIKQVVPTVDGLKQLKYVDPYTKNLAVTMHKESGIETEECSEGGRNVAFIENGDWIQVKGVDFGNVGPTSFEARVASATNGGNIEIRLDSPTGTLIGTCKVEGTGDWQKWVTKTCSVSKVTGVHDLFFRFTGGSGYLFNFSWWKFNSDATPTPTPPPQPSTVPVTERSAFSKIEVEDFNDIKSSTIQKIGTPNGGSGIGYIENGDWLAYKNIDFGNGATTFKALVASTLSPNIELRLDSPTGTLIGTLKVAATGGFNAYEEQSCNISKVTGKHDLYLVFSGAVNIDWFTFGGSSGII | 0.093 ± 0.003 | 3.5 ± 0.0783 | 0.05 ± 0.002 | 4.717 ± 0.0333
2 | CtGH43 (Acetivibrio thermocellus ATCC 27405) (protein, truncated: N-terminal GH43 catalytic module only (903 bp), both CBM6 removed; His6-tagged, pET-28a(+), E. coli BL21(DE3) pLysS; 34 kDa) AADYPIFSQRFTADPAAVVYNGRLYIYCSHDSDATPGQSTYNIPDITCISTDDLKNWTDHGEVFNAKRDSRWASVSWAPSIVYRNNKFYLYYGNGGNGIGVAVSDSPTGPFKDPLPGPLVSWNTPGVQPAQNMWLFDPGVFVDDDGQAYMYFGGNGQNNIRVIKLGNDMISTVGSAMTMSAPRFFEAAYMHKYNGKYYFSYASDFSQGASKIEYMMSDKPTTGFQYKGVILPQPPDNYSNNNHHAIVEYKGNWYVVYHNRTVAKQRGLDPVYQRNVCIDQMFYNADGTIKQVVPTVDGLKQ | 0.097 ± 0.004 | 3.533 ± 0.0333 | 0.04 ± 0.004 | 4.783 ± 0.0167
